Reference: patent publication US20190352359A1 (IMMATICS BIOTECHNOLOGIES, published 2019)
Each block holds one binder with its values, some of them ahead of it.

Columns and labels:
HLA-A*24 [1] = target: T1, HLA-A*24; experiment: UV peptide-exchange ELISA (anti-b2m); yield grade ++ = >20%
T1 construct: Monomers captured on streptavidin plates; also called peptide-receptive MHC molecules; MHC complexes
Source text: (§1) Candidate peptides for T cell based therapies according to the present invention were further tested for their MHC binding capacity (affinity). The individual peptide-MHC complexes were produced by UV-ligand exchange, where a UV-sensitive peptide is cleaved upon UV-irradiation, and exchanged with the peptide of interest as analyzed. Only peptide candidates that can effectively bind and stabilize the peptide-receptive MHC molecules prevent dissociation of the MHC complexes. To determine the yield of the exchange reaction, an ELISA was performed based on the detection of the light chain (p2m) of stabilized MHC complexes. The assay was performed as generally described in Rodenko et al. (Rodenko et al., 2006)
(§2) 96 well MAXISorp plates (NUNC) were coated over night with 2 ug/ml streptavidin in PBS at room temperature, washed 4× and blocked for 1 h at 37° C. in 2% BSA containing blocking buffer. Refolded HLA-A*02:01/MLA-001 monomers served as standards, covering the range of 15-500 ng/ml. Peptide-MHC monomers of the UV-exchange reaction were diluted 100-fold in blocking buffer. Samples were incubated for 1 h at 37° C., washed four times, incubated with 2 ug/ml HRP conjugated anti-β2m for 1h at 37° C., washed again and detected with TMB solution that is stopped with […]. Absorption was measured at 450 nm. Candidate peptides that show a high exchange yield (preferably higher than 50%, most preferred higher than 75%) are generally preferred for a generation and production of antibodies or fragments thereof, and/or T cell receptors or fragments thereof, as they show sufficient avidity to the MHC molecules and prevent dissociation of the MHC complexes.

HLA-A*24 [2] = target: T1, HLA-A*24; experiment: UV peptide-exchange ELISA (anti-b2m); yield grade +++ = >50
Source text: as §1, §2

peptide exchange yield (HLA-A*24 [1]): 20 to 50%
B1: NUP155-012 (peptide)
peptide: THAGVRLYF
notes: also called THAGVRLYF

peptide exchange yield (HLA-A*24 [2]): 50 to 75%
B2: MAGEB17-001 (peptide)
peptide: KYKQHFPEI
notes: also called KYKQHFPEI

peptide exchange yield (HLA-A*24 [1]): 20 to 50%
B3: ALP-011 (peptide)
peptide: RALTETIMF
notes: also called RALTETIMF

peptide exchange yield (HLA-A*24 [1]): 20 to 50%
B4: GPR45-001 (peptide)
peptide: TQLPAPLRI
notes: also called TQLPAPLRI

peptide exchange yield (HLA-A*24 [1]): 20 to 50%
B5: TGM4-002 (peptide)
peptide: RAMCAMMSF
notes: also called RAMCAMMSF

peptide exchange yield (HLA-A*24 [2]): 50 to 75%
B6: QRFPR-003 (peptide)
peptide: MMVTVVALF
notes: also called MMVTVVALF

peptide exchange yield (HLA-A*24 [1]): 20 to 50%
B7: OR51E2-005 (peptide)
peptide: SHIGVVLAF
notes: also called SHIGVVLAF

peptide exchange yield (HLA-A*24 [1]): 20 to 50%
B8: LOC1001246-001 (peptide)
peptide: KQPANFIVL
notes: also called KQPANFIVL

peptide exchange yield (HLA-A*24 [2]): 50 to 75%
B9: HEPHL-007 (peptide)
peptide: YYIGIVEEY
notes: also called YYIGIVEEY

peptide exchange yield (HLA-A*24 [2]): 50 to 75%
B10: KHDC1L-001 (peptide)
peptide: LSCTATPLF
notes: also called LSCTATPLF

peptide exchange yield (HLA-A*24 [2]): 50 to 75%
B11: MMP11-022 (peptide)
peptide: KALMSAFYTF
notes: also called KALMSAFYTF

peptide exchange yield (HLA-A*24 [2]): 50 to 75%
B12: PGR-003 (peptide)
peptide: LHLYCLNTF
notes: also called LHLYCLNTF

peptide exchange yield (HLA-A*24 [2]): 50 to 75%
B13: COL11A1-004 (peptide)
peptide: KTKRWLWDF
notes: also called KTKRWLWDF

peptide exchange yield (HLA-A*24 [2]): 50 to 75%
B14: DDX53-001 (peptide)
peptide: SYLKDPMIV
notes: also called SYLKDPMIV

peptide exchange yield (HLA-A*24 [2]): 50 to 75%
B15: CHRNA9-003 (peptide)
peptide: KYYIATMAL
notes: also called KYYIATMAL

peptide exchange yield (HLA-A*24 [1]): 20 to 50%
B16: ABCC11-005 (peptide)
peptide: IWDALERTF
notes: also called IWDALERTF

peptide exchange yield (HLA-A*24 [2]): 50 to 75%
B17: SOX14-002 (peptide)
peptide: YSLLDPAQF
notes: also called YSLLDPAQF

peptide exchange yield (HLA-A*24 [2]): 50 to 75%
B18: MYCN-002 (peptide)
peptide: FYPDEDDFYF
notes: also called FYPDEDDFYF

peptide exchange yield (HLA-A*24 [2]): 50 to 75%
B19: MMP13-005 (peptide)
peptide: MHPGVLAAFLF
notes: also called MHPGVLAAFLF

peptide exchange yield (HLA-A*24 [1]): 20 to 50%
B20: CRB2-002 (peptide)
peptide: AAFPGAFSF
notes: also called AAFPGAFSF

peptide exchange yield (HLA-A*24 [1]): 20 to 50%
B21: ACTL8-002 (peptide)
peptide: EMFFSPQVF
notes: also called EMFFSPQVF

peptide exchange yield (HLA-A*24 [1]): 20 to 50%
B22: BTBD16-001 (peptide)
peptide: LKSPRLFTF
notes: also called LKSPRLFTF

peptide exchange yield (HLA-A*24 [2]): 50 to 75%
B23: SALL3-002 (peptide)
peptide: QYAAAITNGL
notes: also called QYAAAITNGL

peptide exchange yield (HLA-A*24 [2]): 50 to 75%
B24: NMUR2-004 (peptide)
peptide: IHGIKFHYF
notes: also called IHGIKFHYF

peptide exchange yield (HLA-A*24 [2]): 50 to 75%
B25: NLRP4-007 (peptide)
peptide: VYSSFVFNLF
notes: also called VYSSFVFNLF

peptide exchange yield (HLA-A*24 [1]): 20 to 50%
B26: CHRNA9-002 (peptide)
peptide: KYMSRVLFVY
notes: also called KYMSRVLFVY

peptide exchange yield (HLA-A*24 [1]): 20 to 50%
B27: MAGEA10-003 (peptide)
peptide: TDLVQFLLF
notes: also called TDLVQFLLF

peptide exchange yield (HLA-A*24 [2]): 50 to 75%
B28: HMCN1-006 (peptide)
peptide: EAYSYPPATI
notes: also called EAYSYPPATI

peptide exchange yield (HLA-A*24 [1]): 20 to 50%
B29: MMP12-019 (peptide)
peptide: THSGGTNLF
notes: also called THSGGTNLF

peptide exchange yield (HLA-A*24 [2]): 50 to 75%
B30: FCRL5-009 (peptide)
peptide: VLAPVSGQF
notes: also called VLAPVSGQF

peptide exchange yield (HLA-A*24 [1]): 20 to 50%
B31: MMP11-024 (peptide)
peptide: WFFQGAQYW
notes: also called WFFQGAQYW

peptide exchange yield (HLA-A*24 [1]): 20 to 50%
B32: NOS2-002 (peptide)
peptide: FRSWAVQTF
notes: also called FRSWAVQTF

peptide exchange yield (HLA-A*24 [2]): 50 to 75%
B33: CYP1A1-001 (peptide)
peptide: ISMSATEFLL
notes: also called ISMSATEFLL

peptide exchange yield (HLA-A*24 [1]): 20 to 50%
B34: PAX3-001 (peptide)
peptide: YGQSKPWTF
notes: also called YGQSKPWTF

peptide exchange yield (HLA-A*24 [2]): 50 to 75%
B35: DCT-002 (peptide)
peptide: MYNMVPFF
notes: also called MYNMVPFF

peptide exchange yield (HLA-A*24 [1]): 20 to 50%
B36: ABCC4-002 (peptide)
peptide: YAYATVLTF
notes: also called YAYATVLTF

peptide exchange yield (HLA-A*24 [1]): 20 to 50%
B37: SPNS3-006 (peptide)
peptide: YLGKNWSF
notes: also called YLGKNWSF

peptide exchange yield (HLA-A*24 [1]): 20 to 50%
B38: GPC2-002 (peptide)
peptide: AQHSLTQLF
notes: also called AQHSLTQLF

peptide exchange yield (HLA-A*24 [1]): 20 to 50%
B39: MAGEC1-003 (peptide)
peptide: FSSTLVSLF
notes: also called FSSTLVSLF

peptide exchange yield (HLA-A*24 [1]): 20 to 50%
B40: ALX1-001 (peptide)
peptide: QFSHVPLNNF
notes: also called QFSHVPLNNF

peptide exchange yield (HLA-A*24 [2]): 50 to 75%
B41: TRI-005 (peptide)
peptide: NYFLDPVTI
notes: also called NYFLDPVTI

peptide exchange yield (HLA-A*24 [1]): 20 to 50%
B42: ACTL8-003 (peptide)
peptide: GYGLTRVQPF
notes: also called GYGLTRVQPF

peptide exchange yield (HLA-A*24 [2]): 50 to 75%
B43: NLRP2-010 (peptide)
peptide: RYKMLIPF
notes: also called RYKMLIPF

peptide exchange yield (HLA-A*24 [1]): 20 to 50%
B44: AGTR2-001 (peptide)
peptide: KVFGSFLTL
notes: also called KVFGSFLTL

peptide exchange yield (HLA-A*24 [2]): 50 to 75%
B45: TRPM8-008 (peptide)
peptide: GYFLAQYLM
notes: also called GYFLAQYLM

peptide exchange yield (HLA-A*24 [1]): 20 to 50%
B46: KCNK18-001 (peptide)
peptide: YLCMLYALF
notes: also called YLCMLYALF

peptide exchange yield (HLA-A*24 [1]): 20 to 50%
B47: DNMT3B-003 (peptide)
peptide: SQHFNLATF
notes: also called SQHFNLATF

peptide exchange yield (HLA-A*24 [1]): 20 to 50%
B48: MCOLN2-002 (peptide)
peptide: EFINGWYVL
notes: also called EFINGWYVL

peptide exchange yield (HLA-A*24 [2]): 50 to 75%
B49: MRGPRX4-001 (peptide)
peptide: FIPVAWLIF
notes: also called FIPVAWLIF

peptide exchange yield (HLA-A*24 [2]): 50 to 75%
B50: KLHDC7B-005 (peptide)
peptide: DIYVTGGHLF
notes: also called DIYVTGGHLF

peptide exchange yield (HLA-A*24 [2]): 50 to 75%
B51: ANO7-003 (peptide)
peptide: LFDHGGTVFF
notes: also called LFDHGGTVFF

peptide exchange yield (HLA-A*24 [1]): 20 to 50%
B52: MROH2A-006 (peptide)
peptide: YQGSLEVLF
notes: also called YQGSLEVLF

peptide exchange yield (HLA-A*24 [1]): 20 to 50%
B53: CDK6-006 (peptide)
peptide: AVLRHLETF
notes: also called AVLRHLETF

peptide exchange yield (HLA-A*24 [2]): 50 to 75%
B54: HTR7-002 (peptide)
peptide: YIPMSVMLF
notes: also called YIPMSVMLF

peptide exchange yield (HLA-A*24 [2]): 50 to 75%
B55: KRT33A-001 (peptide)
peptide: MSYSCGLPSL
notes: also called MSYSCGLPSL

peptide exchange yield (HLA-A*24 [1]): 20 to 50%
B56: GEN-003 (peptide)
peptide: TQMDVKLVF
notes: also called TQMDVKLVF

peptide exchange yield (HLA-A*24 [2]): 50 to 75%
B57: ESR1-010 (peptide)
peptide: RSMEHPGKLLF
notes: also called RSMEHPGKLLF

peptide exchange yield (HLA-A*24 [1]): 20 to 50%
B58: BTBD16-005 (peptide)
peptide: VLASAHILQF
notes: also called VLASAHILQF

peptide exchange yield (HLA-A*24 [1]): 20 to 50%
B59: C18orf54-001 (peptide)
peptide: RSWENIPVTF
notes: also called RSWENIPVTF

peptide exchange yield (HLA-A*24 [1]): 20 to 50%
B60: ENP-002 (peptide)
peptide: KTYLPTFETTI
notes: also called KTYLPTFETTI

peptide exchange yield (HLA-A*24 [1]): 20 to 50%
B61: ZCCHC16-001 (peptide)
peptide: YSLEHLTQF
notes: also called YSLEHLTQF

peptide exchange yield (HLA-A*24 [2]): 50 to 75%
B62: FLT3-011 (peptide)
peptide: IYIIMQSCW
notes: also called IYIIMQSCW

peptide exchange yield (HLA-A*24 [1]): 20 to 50%
B63: SPATA31D1-001 (peptide)
peptide: RALLPSPLF
notes: also called RALLPSPLF

peptide exchange yield (HLA-A*24 [1]): 20 to 50%
B64: CXCR3-002 (peptide)
peptide: LFALPDFIF
notes: also called LFALPDFIF

peptide exchange yield (HLA-A*24 [2]): 50 to 75%
B65: NLRP4-006 (peptide)
peptide: VYSSFVFNL
notes: also called VYSSFVFNL

peptide exchange yield (HLA-A*24 [1]): 20 to 50%
B66: SLC45A3-003 (peptide)
peptide: ASAALTGFTF
notes: also called ASAALTGFTF
